# Columns and labels:
# [1] = target: Human GPA33 on GPA33+ colorectal cancer cell lines (Colo 205, LS 174T, SW 1222) (human) (UniProt Q99795); assay: cell binding to SW1222 Luc cells; IgG format
# [2] = target: Human GPA33 (recombinant protein, Novoprotein) (human) (UniProt Q99795); assay: SPR (Biacore), binding to GPA33 protein; IgG format
# [3] = target: Human GPA33 on GPA33+ colorectal cancer cell lines (Colo 205, LS 174T, SW 1222) (human) (UniProt Q99795); assay: cell binding to LS174T Luc cells; IgG format
# Human GPA33 on GPA33+ colorectal cancer cell lines (Colo 205, LS 174T, SW 1222) (human), sequence (Q99795 22-319 limits assumed): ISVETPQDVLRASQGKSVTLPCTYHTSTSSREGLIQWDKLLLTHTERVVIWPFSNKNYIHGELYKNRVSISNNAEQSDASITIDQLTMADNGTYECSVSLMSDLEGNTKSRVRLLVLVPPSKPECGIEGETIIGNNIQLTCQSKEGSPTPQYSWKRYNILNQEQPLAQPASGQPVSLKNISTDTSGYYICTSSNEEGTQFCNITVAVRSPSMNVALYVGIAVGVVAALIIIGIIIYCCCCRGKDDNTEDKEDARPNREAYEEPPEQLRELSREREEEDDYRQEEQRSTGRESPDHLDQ
# Human GPA33 (recombinant protein, Novoprotein) (human), sequence (Q99795 22-235 limits assumed): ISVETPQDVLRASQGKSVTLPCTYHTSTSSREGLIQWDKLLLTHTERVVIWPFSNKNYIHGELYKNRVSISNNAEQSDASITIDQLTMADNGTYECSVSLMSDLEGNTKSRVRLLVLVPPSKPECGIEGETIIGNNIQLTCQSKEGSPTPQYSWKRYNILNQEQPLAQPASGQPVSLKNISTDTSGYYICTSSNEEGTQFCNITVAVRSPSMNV
EC50 [1] [µg/mL],Kd [2] [nM],EC50 [3] [µg/mL],Binder
1.51,0.87,1.12,"G3A_VK1+VH1 (antibody, IgG1, V domains shown, part only, IgG1 constant regions not given) VH: EVQLVESGGGLVKPGGSLRLSCAASGFAFSTYDMSWVRQAPGKGLEWVSTISSGGSYTYYADSVKGRFTISRDNAKNSLYLQMNSLRAEDTAVYYCAPTTVVPFAYWGQGTLVTVSA VL: DIQMTQSPSSLSASVGDRVTITCKASQNVRTVVAWYQQKPGKAPKRLIYLASNRHTGVPSRFSGSGSGTEFTLTISNLQPEDFATYYCLQHWSYPLTFGSGTKLEVK"
0.314,0.229,0.364,"G3A_VK4+VH2 (antibody, IgG1, V domains shown, part only, IgG1 constant regions not given) VH: EVQLVESGGGLVKPGGSLRLSCAASGFAFSTYDMSWVRQAPGKGLEWVATISSGGSYTYYLDSVKGRFTISRDSAKNSLYLQMNSLRAEDTAVYYCAPTTVVPFAYWGQGTLVTVSA VL: DIQMTQSPSSLSASVGDRVTITCKASQNVRTVVAWYQQKPGKAPKTLIYLASNRHTGVPSRFSGSGSGTEFTLTISNLQPEDFATYYCLQHWSYPLTFGSGTKLEVK"
0.991,1.73,0.654,"G3A_VK1+VH2 (antibody, IgG1, V domains shown, part only, IgG1 constant regions) VH: EVQLVESGGGLVKPGGSLRLSCAASGFAFSTYDMSWVRQAPGKGLEWVATISSGGSYTYYLDSVKGRFTISRDSAKNSLYLQMNSLRAEDTAVYYCAPTTVVPFAYWGQGTLVTVSA VL: DIQMTQSPSSLSASVGDRVTITCKASQNVRTVVAWYQQKPGKAPKRLIYLASNRHTGVPSRFSGSGSGTEFTLTISNLQPEDFATYYCLQHWSYPLTFGSGTKLEVK"
1.89,8.39,,"G3A_VK2+VH3 (antibody, IgG1, V domains shown, part only, IgG1 constant regions not given) VH: EVQLVESGGGLVKPGGSLRLSCAASGFAFSTYDMSWVRQAPGKGLEWVATISSGGSYTYYADSVKGRFTISRDSAKNSLYLQMNSLRAEDTAVYYCAPTTVVPFAYWGQGTLVTVSA VL: DIQMTQSPSSLSTSVGDRVTITCKASQNVRTVVAWYQQKPGKAPKTLIYLASSLQSGVPSRFSGSGSGTEFTLTISNVQPEDFADYFCLQHWSYPLTFGSGTKLEVK"
1.32,1.49,1.78,"G3A_VK1+VH3 (antibody, IgG1, V domains shown, part only, IgG1 constant regions) VH: EVQLVESGGGLVKPGGSLRLSCAASGFAFSTYDMSWVRQAPGKGLEWVATISSGGSYTYYADSVKGRFTISRDSAKNSLYLQMNSLRAEDTAVYYCAPTTVVPFAYWGQGTLVTVSA VL: DIQMTQSPSSLSASVGDRVTITCKASQNVRTVVAWYQQKPGKAPKRLIYLASNRHTGVPSRFSGSGSGTEFTLTISNLQPEDFATYYCLQHWSYPLTFGSGTKLEVK"
,5.8,1.2,"G3A_VK2+VH1 (antibody, IgG1, V domains shown, part only, IgG1 constant regions not given) VH: EVQLVESGGGLVKPGGSLRLSCAASGFAFSTYDMSWVRQAPGKGLEWVSTISSGGSYTYYADSVKGRFTISRDNAKNSLYLQMNSLRAEDTAVYYCAPTTVVPFAYWGQGTLVTVSA VL: DIQMTQSPSSLSTSVGDRVTITCKASQNVRTVVAWYQQKPGKAPKTLIYLASSLQSGVPSRFSGSGSGTEFTLTISNVQPEDFADYFCLQHWSYPLTFGSGTKLEVK"
0.383,0.241,0.381,"G3A_VK3+VH2 (antibody, IgG1, V domains shown, part only, IgG1 constant regions not given) VH: EVQLVESGGGLVKPGGSLRLSCAASGFAFSTYDMSWVRQAPGKGLEWVATISSGGSYTYYLDSVKGRFTISRDSAKNSLYLQMNSLRAEDTAVYYCAPTTVVPFAYWGQGTLVTVSA VL: DIQMTQSPSSLSTSVGDRVTITCKASQNVRTVVAWYQQKPGKAPKTLIYLASNRHSGVPSRFSGSGSGTEFTLTISNLQPEDFATYYCLQHWSYPLTFGSGTKLEVK"
,9.54,,"G3A_VK2+VH2 (antibody, IgG1, V domains shown, part only, IgG1 constant regions) VH: EVQLVESGGGLVKPGGSLRLSCAASGFAFSTYDMSWVRQAPGKGLEWVATISSGGSYTYYLDSVKGRFTISRDSAKNSLYLQMNSLRAEDTAVYYCAPTTVVPFAYWGQGTLVTVSA VL: DIQMTQSPSSLSTSVGDRVTITCKASQNVRTVVAWYQQKPGKAPKTLIYLASSLQSGVPSRFSGSGSGTEFTLTISNVQPEDFADYFCLQHWSYPLTFGSGTKLEVK"
